Laboratory results: article PMC6045459 (Nature structural & molecular biology, 2018)
Blank lines part the entries; values can stand above or below the molecule they belong to.

How the values were obtained:
[1] = molecular target: NUDT16TI (NUDT16 Tudor-interacting), purified alone (UniProt Q96DE0); assay: ITC
[2] = molecular target: NUDT16TI with deletion of His105 (UniProt Q96DE0); assay: ITC
NUDT16TI K5S = NUDT16TI K5S (UniProt Q96DE0); assay: ITC
[3] = molecular target: TIRR (residues 6-211), untagged (human, UniProt Q9BRJ7 6-211); assay: crystal structure
Sequence of TIRR (residues 6-211), untagged (Q9BRJ7 6-211): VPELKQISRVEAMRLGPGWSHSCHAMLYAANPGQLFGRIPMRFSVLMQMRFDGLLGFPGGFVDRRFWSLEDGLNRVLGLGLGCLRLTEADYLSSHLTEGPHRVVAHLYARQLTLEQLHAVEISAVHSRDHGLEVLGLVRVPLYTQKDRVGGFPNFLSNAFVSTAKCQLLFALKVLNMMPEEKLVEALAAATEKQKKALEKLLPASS

AUC = molecular target: the molecule itself; assay: AUC

Kd [1]: 1.2 µM
fold increase of Kd with excess IMP against no IMP [1]: 3 fold
fold decrease in affinity against NUDT16TI [2]: 38 fold
fold decrease in affinity against NUDT16TI (NUDT16TI K5S): 14 fold
Molecule: 53BP1-Tudor (residues 1484-1603) (from UniProt Q12888 1484-1603) (domain or fragment)

binding result [3]: binds
B1: 53BP1-Tudor (residues 1484-1603) (domain or fragment, human, UniProt Q12888 1484-1603, looked up)
chain: NSFVGLRVVAKWSSNGYFYSGKITRDVGAGKYKLLFDDGYECDVLGKDILLCDPIPLDTEVTALSEDEYFSAGVVKGHRKESGELYYSIEKEGQRKWYKRMAVILSLEQGNRLREQYGLG

B2: 53BP1 (residues 1204-1603) (domain or fragment, human, UniProt Q12888 1204-1603, looked up)
chain: EKPVSAPGDDTESLHSQGEEEFDMPQPPHGHVLHRHMRTIREVRTLVTRVITDVYYVDGTEVERKVTEETEEPIVECQECETEVSPSQTGGSSGDLGDISSFSSKASSLHRTSSGTSLSAMHSSGSSGKGAGPLRGKTSGTEPADFALPSSRGGPGKLSPRKGVSQTGTPVCEEDGDAGLGIRQGGKAPVTPRGRGRRGRPPSRTTGTRETAVPGPLGIEDISPNLSPDDKSFSRVVPRVPDSTRRTDVGAGALRRSDSPEIPFQAAAGPSDGLDASSPGNSFVGLRVVAKWSSNGYFYSGKITRDVGAGKYKLLFDDGYECDVLGKDILLCDPIPLDTEVTALSEDEYFSAGVVKGHRKESGELYYSIEKEGQRKWYKRMAVILSLEQGNRLREQYGLG
stoichiometry N (AUC): 2
